# Assay results published in patent US20210364527A1 (QUANTUM SI, published 2021).
# Where two headings read alike, the source gives them in different places. Primed or numbered codes have the meaning given here. Ends that are not written are not given here. FITC′ = not defined here
# T1: VA peptide VAKLDEESILKQK (XAKLDEESILKQK, X = V)
# T1 construct: Immobilized on the biolayer interferometry sensor
# T1 peptide: VAKLDEESILKQK
# T2: F peptide FAKLDEESILKQK (XAKLDEESILKQK, X = F)
# T2 construct: Immobilized on the biolayer interferometry sensor
# T2 peptide: FAKLDEESILKQK
# T3: IA peptide IAKLDEESILKQK (XAKLDEESILKQK, X = I)
# T3 construct: Immobilized on the biolayer interferometry sensor
# T3 peptide: IAKLDEESILKQK
# T4: LA peptide LAKLDEESILKQK (XAKLDEESILKQK, X = L)
# T4 construct: Immobilized on the biolayer interferometry sensor
# T4 peptide: LAKLDEESILKQK
# T5: ClpS from Thermosynochoccus elongatus (teClpS) (Thermosynechococcus elongatus, UniProt Q8DJY3 6-94)
# T5 construct: Dye-labelled or streptavidin-complexed depending on the assay; also called Thermosynechococcus elongatus ClpS
# T5 sequence: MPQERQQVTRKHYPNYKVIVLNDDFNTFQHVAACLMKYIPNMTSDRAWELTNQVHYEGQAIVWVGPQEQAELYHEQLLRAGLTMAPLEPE
# T6: KA peptide KAKLDEESILKQK (XAKLDEESILKQK, X = K)
# T6 construct: Biolayer interferometry single-point screen of UBR-box homologs
# T6 peptide: KAKLDEESILKQK
# T7: Kluyveromyces lactis UBR-box domain (PS528) (Kluyveromyces lactis, UniProt O60014 101-182)
# T7 construct: UBR-streptavidin complex in fluorescence polarization
# T7 sequence: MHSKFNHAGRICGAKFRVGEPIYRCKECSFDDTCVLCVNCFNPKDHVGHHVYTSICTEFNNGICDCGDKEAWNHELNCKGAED
# T8: RA peptide RAKLDEESILKQK (XAKLDEESILKQK, X = R)
# T8 construct: Biolayer interferometry single-point screen of UBR-box homologs
# T8 peptide: RAKLDEESILKQK
# T9: LI
# T9 construct: also called LIFAGK
# T9 chain: LIFAGK
# T10: IF
# T10 construct: also called IFAGK
# T10 chain: IFAGK
# T11: I (IAWLVK)
# T11 chain: IAWLVK
# T12: FITC-labeled LA peptide LAKLDEESILKQK-FITC
# T12 peptide: LAKLDEESILKQK-{FITC′}
# T13: FITC-labeled VA peptide VAKLDEESILKQK-FITC
# T13 peptide: VAKLDEESILKQK-{FITC′}
# T14: FITC-labeled IA peptide IAKLDEESILKQK-FITC
# T14 peptide: IAKLDEESILKQK-{FITC′}
# T15: W peptide WAKLDEESILKQK (XAKLDEESILKQK, X = W)
# T15 construct: Immobilized on the biolayer interferometry sensor
# T15 peptide: WAKLDEESILKQK
# T16: Y peptide YAKLDEESILKQK (XAKLDEESILKQK, X = Y)
# T16 construct: Immobilized on the biolayer interferometry sensor
# T16 peptide: YAKLDEESILKQK
# T17: FITC-labeled YA peptide YAKLDEESILKQK-FITC
# T17 peptide: YAKLDEESILKQK-{FITC′}
# T18: FITC-labeled FA peptide FAKLDEESILKQK-FITC
# T18 peptide: FAKLDEESILKQK-{FITC′}
# T19: FITC-labeled WA peptide WAKLDEESILKQK-FITC
# T19 peptide: WAKLDEESILKQK-{FITC′}
# T20: IQ peptide IQKLDEESILKQK (XXKLDEESILKQK, XX = IQ)
# T20 construct: Biolayer interferometry
# T20 peptide: IQKLDEESILKQK
# T21: VR peptide VRKLDEESILKQK (XXKLDEESILKQK, XX = VR)
# T21 construct: Biolayer interferometry
# T21 peptide: VRKLDEESILKQK
# B1: IR peptide IRKLDEESILKQK (XXKLDEESILKQK, XX = IR) (peptide)
# peptide: IRKLDEESILKQK
# notes: Biolayer interferometry
# B2: FITC-labeled RA peptide RAKLDEESILKQK-FITC (peptide)
# peptide: RAKLDEESILKQK-{FITC′}
# B3: RA peptide (N-terminal arginine, penultimate alanine; rest of sequence not given) (peptide)
# peptide: RAKLDEESILKQK-{FITC′}
# Tests used:
# [1] = biological target: T1, VA peptide VAKLDEESILKQK …; experiment: biolayer interferometry as in Example 12
# [2] = biological target: T2, F peptide FAKLDEESILKQK (XAKLDEESILKQK, …); experiment: biolayer interferometry as in Example 12
# [3] = biological target: T3, IA peptide IAKLDEESILKQK …; experiment: biolayer interferometry as in Example 12
# [4] = biological target: T4, LA peptide LAKLDEESILKQK …; experiment: biolayer interferometry as in Example 12
# [5] = biological target: T5, ClpS from Thermosynochoccus elongatus …; experiment: biolayer interferometry
# [6] = biological target: B3; experiment: fluorescence polarization
# [7] = biological target: T6, KA peptide KAKLDEESILKQK …; experiment: BLI heatmap, single-point screen
# [8] = biological target: B2; experiment: fluorescence polarization titration with increasing concentration of UBR protein
# [9] = biological target: T7, Kluyveromyces lactis UBR-box domain …; experiment: as above
# [10] = biological target: T1, VA peptide VAKLDEESILKQK …; experiment: biolayer interferometry as in Example 12
# [11] = biological target: T2, F peptide FAKLDEESILKQK (XAKLDEESILKQK, …); experiment: biolayer interferometry as in Example 12
# [12] = biological target: T3, IA peptide IAKLDEESILKQK …; experiment: biolayer interferometry as in Example 12
# [13] = biological target: T4, LA peptide LAKLDEESILKQK …; experiment: biolayer interferometry as in Example 12
# [14] = biological target: T8, RA peptide RAKLDEESILKQK …; experiment: biolayer interferometry single-point screen, 30 C
# [15] = biological target: T6, KA peptide KAKLDEESILKQK …; experiment: biolayer interferometry single-point screen, 30 C
# [16] = biological target: T7, Kluyveromyces lactis UBR-box domain …; experiment: fluorescence polarization
# [17] = biological target: T1, VA peptide VAKLDEESILKQK …; experiment: biolayer interferometry as in Example 12
# [18] = biological target: T2, F peptide FAKLDEESILKQK (XAKLDEESILKQK, …); experiment: biolayer interferometry as in Example 12
# [19] = biological target: T3, IA peptide IAKLDEESILKQK …; experiment: biolayer interferometry as in Example 12
# [20] = biological target: T4, LA peptide LAKLDEESILKQK …; experiment: biolayer interferometry as in Example 12
# LI = biological target: T9, LI; experiment: 3-binder dynamic sequencing of [..]; binder assigned by the binding preference in Table 1
# IF = biological target: T10, IF; experiment: as above
# [21] = biological target: T1, VA peptide VAKLDEESILKQK …; experiment: biolayer interferometry as in Example 12
# [22] = biological target: T2, F peptide FAKLDEESILKQK (XAKLDEESILKQK, …); experiment: biolayer interferometry as in Example 12
# [23] = biological target: T3, IA peptide IAKLDEESILKQK …; experiment: biolayer interferometry as in Example 12
# [24] = biological target: T4, LA peptide LAKLDEESILKQK …; experiment: biolayer interferometry as in Example 12
# I (IAWLVK) = biological target: T11, I (IAWLVK); experiment: dynamic sequencing of EFIAWLVK with PS610, PS372, hTET and pfuTET
# [25] = biological target: T12, FITC-labeled LA peptide …; experiment: fluorescence polarization, FITC-peptide with ClpS:streptavidin complex, 23 C
# [26] = biological target: T13, FITC-labeled VA peptide …; experiment: as above
# [27] = biological target: T14, FITC-labeled IA peptide …; experiment: as above
# [28] = biological target: T15, W peptide WAKLDEESILKQK (XAKLDEESILKQK, …); experiment: biolayer interferometry, peptide immobilized on the sensor, 30 C
# [29] = biological target: T16, Y peptide YAKLDEESILKQK (XAKLDEESILKQK, …); experiment: as above
# [30] = biological target: T17, FITC-labeled YA peptide …; experiment: fluorescence polarization, single point
# [31] = biological target: T18, FITC-labeled FA peptide …; experiment: fluorescence polarization, single point
# [32] = biological target: T19, FITC-labeled WA peptide …; experiment: fluorescence polarization, single point
# [33] = biological target: T20, IQ peptide IQKLDEESILKQK …; experiment: biolayer interferometry
# [34] = biological target: B1; experiment: biolayer interferometry
# [35] = biological target: T21, VR peptide VRKLDEESILKQK …; experiment: biolayer interferometry
# [36] = biological target: T1, VA peptide VAKLDEESILKQK …; experiment: biolayer interferometry as in Example 12
# [37] = biological target: T2, F peptide FAKLDEESILKQK (XAKLDEESILKQK, …); experiment: biolayer interferometry as in Example 12
# [38] = biological target: T3, IA peptide IAKLDEESILKQK …; experiment: biolayer interferometry as in Example 12
# [39] = biological target: T4, LA peptide LAKLDEESILKQK …; experiment: biolayer interferometry as in Example 12
binder,measurement,setting,value
PS551 (other) MPSAAPAKPKTKRQSRTQGMPPYNVVLLDDDDHTYGYVIEMLNKVFGHPPEKGFELATEVDKNGRVIVMTTNLEVAELKRDEVHAFGPDPLMPRSKGSMSAVVERAG,binding result,[1],binds
same,binding result,[2],no binding
same,binding result,[3],binds
same,binding result,[4],binds
B1,binding result,[5],binds
"Kluyveromyces marxianus UBR1 (PS621) (other, UBR-streptavidin complex in fluorescence polarization) MHSKFSHAGRICGAKFKVGEPIYRCKECSFDDTCVLCVNCFNPKDHTGHHVYTTICTEFNNGICDCGDKEAWNHTLFCKAEEG",Kd,[6],321 nM
same,binding result,[7],binds
same,Kd,[8],420 nM
B2,Kd,[9],460 nM
PS545 (other) MSEPMTLPAIPQPRLKERTQRQPPYNVILLNDDDHSYEYVIAMLQVLFGYPREKGYQMAKEVDSTGRVILLTTTREHAELKQEQIHAFGPDPLMARCQGSMTAVIEPAV,binding result,[10],binds
same,binding result,[11],no binding
same,binding result,[12],binds
same,binding result,[13],binds
Vombatus ursinus UBR-box domain (PS522) (other) MLCGKVFKSGETTYSCRDCAIDPTCVLCMNCFQSSVHKNHRYKMHTSTGGGFCDCGDTEAWKTGPFCTIHEP,binding result,[14],binds
same,binding result,[15],binds
B3,Kd,[16],403 nM
PS558 (other) MTATTADPDRTTAEKTTKKARRSGQPKRQPRYHVILWNDNDHTYQYVVAMLQQLFGHPATTGLKLATEVDRTGRAVILTTTREHAELKRDQIHAFGADRLLARSKGAMSASIEPEAE,binding result,[17],binds
same,binding result,[18],no binding
same,binding result,[19],binds
same,binding result,[20],binds
Planctomycetia bacterium ClpS homolog (PS557) (other) MPTAASATESAIEDTPAPARPEVDGRTKPKRQPRYHVVLWNDDDHTYQYVVVMLQSLFGHPPERGYRLAKEVDTQGRVIVLTTTREHAELKRDQIHAFGYDRLLARSKGSMKASIEAEE,binding result,LI,binds
same,binding result,IF,binds
same,binding result,[21],binds
same,binding result,[22],no binding
same,binding result,[23],binds
same,binding result,[24],binds
"PS372 (ClpS homolog) (other, also called PS372-Bt; PS372-Bt-mPEG4) MAFPARGKTAPKNEVRRQPPYNVILLNDDDHTYRYVIEMLQKIFGFPPEKGFQIAEEVDRTGRVILLTTSKEHAELKQDQVHSYGPDPYLGRPCSGSMTCVIEPAV",binding result,I (IAWLVK),binds
same,binding result,[25],binds
same,binding result,[26],binds
same,binding result,[27],binds
same,binding result,[28],no binding
same,binding result,[29],no binding
same,binding result,[30],no binding
same,binding result,[31],no binding
same,binding result,[32],no binding
same,binding result,[33],binds
same,binding result,[34],binds
same,binding result,[35],no binding
same,binding result,[36],binds
same,binding result,[37],no binding
same,binding result,[38],binds
same,binding result,[39],binds
